Data from paper PMC12554172, “Systematic analysis of the RGS2 degron reveals characteristics of substrate recognition by the F-box protein FBXO44” (The Journal of Biological Chemistry, 2025).
Changes are numbered by the printed parent chain. Names may count otherwise. “Also recorded” adds a separate entry of the source.

Experiments:
RGS2-HA = assay: Coimmunoprecipitation of FLAG-FBXO44 mutant with RGS2-HA; assay type: cell-based; conditions: HEK-293T cells, HA tag IP, normalized to input, % of WT, three independent experiments
Description: (§1) Figure 6 Point mutations disrupt the RGS2–FBXO44 association. Co-IP was performed in HEK-293T cells transiently transfected with RGS2-HA and FLAG-FBXO44 (WT and mutants as indicated). […] Representative blot and quantification of four independent experiments. […] Levels of each protein were normalized to input and expressed as % of WT. Representative blot and quantification of three independent experiments. ∗p < 0.05; ∗∗∗∗p < 0.0001 using Student's unpaired t test. Co-IP, coimmunoprecipitation; FBXO44, F-box only protein 44; RGS2, regulator of G protein signaling 2.
(§2) Cells were maintained in a humidified incubator at 37 °C with 5% CO2. HEK-293T cells were obtained from the American Type Culture Collection (ATCC; CRL-1573). The American Type Culture Collection cell lines are subjected to comprehensive and repeated authentication and contamination checks, ensuring confirmation of cell line identity and ensuring that it is free of contamination prior to supplying it to users. Cells underwent periodical (every 6 months) mycoplasma testing to ensure cell lines are not compromised. Cells were cultured in Dulbecco's modified Eagle's medium (Gibco, catalog no.: 11995) and supplemented with 10% fetal bovine serum (Gibco, catalog no.: 16000). Cells were transfected with DNA plasmids using Lipofectamine 3000 (Invitrogen) under reduced serum conditions in Opti-MEM (Gibco, catalog no.: 31985). […]

HEK-293T cells [1] = assay: RGS2 protein levels, baseline and with proteasome inhibitor MG-132; assay type: cell-based, human; conditions: for change of RGS2 protein levels with MG-132 / change of RGS2 protein levels with MG-132 (Fig. S4): MG-132 10 μM, 4 h
Source text: Representative Western blot and quantification of three independent experiments. […] Representative Western blot and quantification of three independent experiments. Representative Western blot (D), quantification of knockdown efficiency (E), and effects on RGS protein levels (F) when FBXO44 is knocked down using siRNA. […] Result of three independent experiments. ∗p < 0.05; ∗∗p < 0.01; ∗∗∗p < 0.001 using two-way ANOVA followed by Tukey's post hoc test for pairwise comparisons (C, E, and F). FBXO44, F-box only protein 44; HEK-293T, human embryonic kidney-293T cell line; RGS2, regulator of G protein signaling 2.
(§3) Cells were harvested on ice in lysis buffer containing protease inhibitors (50 mM Tris–HCl [pH 7.4], 5 mM NaCl, 0.5 mM EDTA, 1% Triton X-100, 10% cOmplete Protease Inhibitor Cocktail EDTA-free). Lysates were bath sonicated for 10 min at 4 °C, centrifuged at 6000g for 3 min, and the supernatant was used for SDS-PAGE and immunoblotting. Total protein concentration was determined using the Pierce BCA Protein Assay Kit. Samples were diluted to 1 μg/μl in protein sample loading buffer (Li-Cor Biosciences).
(§4) Equal amounts of protein in each lane were resolved on a 12% SDS-PAGE gel for 1 h at 160 V. Samples were transferred to an Immobilon-FL PVDF membrane (Millipore) and subjected to Western immunoblot analysis using Li-Cor blocking buffer for both blocking and antibody diluents. Membranes were blocked for 1 h, then incubated for 2 h in primary antibodies as described under “Antibodies,” and finally incubated for 1 h with IRDye secondary antibodies directed at the species of the primary antibody. Following each antibody incubation, membranes were washed four times in PBS with 0.1% Tween-20. Membranes were imaged using an Azure600 imaging system (Azure Biosystems).
Figure S4. Effect of RGS2 mutations on protein stability. Representative western blot and quantification of five or six independent experiments (varies by mutation). The proteasome inhibitor MG-132 (10 μM, 4 h) […]
P15R were predicted to destabilize RGS2, due to increased binding to FBXO44 in the peptide microarray. […]
significant. *P<0.05; ***P<0.001 using two-way ANOVA followed by Tukey’s post hoc test for pairwise

HEK-293T cells [2] = assay: Cycloheximide (CHX) chase assay; assay type: cell-based, human; conditions: for RGS2 protein half-life (t1/2): CHX 50 μM, Western blot, three independent experiments
Description: HEK-293T cells in 12-well plates, transiently transfected with either RGS2^WT or RGS2^C13S, were treated with CHX (50 μM) at indicated time points. Cells were harvested as described later and subjected to SDS-PAGE and Western blot.
as §3, §4

FBXO44 [3] = assay: siRNA-mediated FBXO44 knockdown, Western blot; assay type: cell-based, human; conditions: HEK-293T cells; for RGS2 protein levels upon FBXO44 knockdown: FBXO44 siRNA, Fig. 7, D and F, three independent experiments
Description: Using a pool of 4 siRNA oligos (siGENOME SMART Pools; Dharmacon/Revvity), we achieved ∼70% reduction in endogenous FBXO44 protein levels in HEK-293T cells (Fig. 7, D and E).
Cells were maintained in a humidified incubator at 37 °C with 5% CO2. HEK-293T cells were obtained from the American Type Culture Collection (ATCC; CRL-1573). The American Type Culture Collection cell lines are subjected to comprehensive and repeated authentication and contamination checks, ensuring confirmation of cell line identity and ensuring that it is free of contamination prior to supplying it to users. Cells underwent periodical (every 6 months) mycoplasma testing to ensure cell lines are not compromised. Cells were cultured in Dulbecco's modified Eagle's medium (Gibco, catalog no.: 11995) and supplemented with 10% fetal bovine serum (Gibco, catalog no.: 16000). Cells were transfected with DNA plasmids using Lipofectamine 3000 (Invitrogen) under reduced serum conditions in Opti-MEM (Gibco, catalog no.: 31985). Media were changed to Dulbecco's modified Eagle's medium supplemented with 0.5% fetal bovine serum after 4 to 6 h, and cells were harvested for experiments 24 h after transfection. siRNA transfections were performed under reduced serum conditions in Opti-MEM 24 h prior to DNA transfections at 40% to 60% confluency. Cells were transfected with siGENOME SMART-POOL siRNA (FBXO44, M-019201-01-0005; Nontargeting, D-001206-13-05) from Dharmacon (Revvity) using Lipofectamine RNAiMAX (Invitrogen). Experiments were performed 72 h after transfection.
as §3, with “Biosciences). […]” for “Biosciences).”

FLAG-FBXO44 = assay: Coimmunoprecipitation of RGS2-HA mutant with FLAG-FBXO44; assay type: cell-based; conditions: HEK-293T cells, HA tag IP, normalized to input, % of WT; four independent experiments
Description: as §1, §2

FBXO44 [4] = conditions: ref [24]; cited from earlier work
Source text: However, evidence of a direct interaction between RGS2 and FBXO44 has, until now, not yet been established. Thus, we first aimed to verify that purified FBXO44 would bind the degron sequence in vitro. […] This also c ...

[5] = Fig. 7, B and C, three independent experiments
[6] = Fig. S4, five or six independent experiments

B1: FLAG-FBXO44^Y234A: FLAG-tagged FBXO44 with Y234A mutation (protein)
chain: MAVGNINELPENILLELFTHVPARQLLLNCRLVCSLWRDLIDLVTLWKRKCLREGFITEDWDQPVADWKIFYFLRSLHRNLLHNPCAEEGFEFWSLDVNGGDEWKVEDLSRDQRKEFPNDQVKKYFVTSYYTCLKSQVVDLKAEGYWEELMDTTRPDIEVKDWFAARPDCGSKYQLCVQLLSSAHAPLGTFQPDPATIQQKSDAKWREVSHTFSNYPPGVRYIWFQHGGVDTHAWAGWYGPRVTNSSITIGPPLP
modifications: left off: FLAG, end not stated, kept
notes: FLAG-tagged FBXO44 with Y234A mutation
association with RGS2-HA (co-IP) (RGS2-HA): associates significantly less | association with RGS2-HA (co-IP) (RGS2-HA; listed as FBXO44^Y234A): significantly reduced association

B2: RGS2^WT: full-length wild-type RGS2 expressed in HEK-293T cells (protein)
chain: MQSAMFLAVQHDCRPMDKSAGSGHKSEEKREKMKRTLLKDWKTRLSYFLQNSSTPGKPKTGKKSKQQAFIKPSPEEAQLWSEAFDELLASKYGLAAFRAFLKSEFCEENIEFWLACEDFKKTKSPQKLSSKARKIYTDFIEKEAPKEINIDFQTKTLIAQNIQEATSGCFTTAQKRVYSLMENNSYPRFLESEFYQDLCKKPQITTEPHAT
modifications: left off: HA, end not stated, kept
notes: full-length wild-type RGS2 expressed in HEK-293T cells
change of RGS2 protein levels with MG-132 (HEK-293T cells [1]; [5]): significantly enhanced | change of RGS2 protein levels with MG-132 (Fig. S4) (HEK-293T cells [1]; [6]): significantly increases | RGS2 protein half-life (t1/2) (HEK-293T cells [2]; transfected HEK-293T): 19.5 min | RGS2 protein levels upon FBXO44 knockdown (FBXO44 [3]): significantly increases; also recorded: significant increase

B3: RGS2^C13S-HA: HA-tagged RGS2 with C13S mutation (protein)
chain: B2 chain with C13S
modifications: left off: HA, end not stated, kept
notes: HA-tagged RGS2 with C13S mutation
association with FLAG-FBXO44 (co-IP) (FLAG-FBXO44): significantly reduced association; also recorded: associates significantly less

B4: RGS2^D12R: full-length RGS2 with D12R mutation (protein, UniProt P41220 1-211, looked up, variant D12R)
chain: B2 chain with D12R
modifications: full-length
notes: full-length RGS2 with D12R mutation
change of RGS2 protein levels with MG-132 (Fig. S4) (HEK-293T cells [1]; [6]): none of these mutations resulted in significant changes in basal expression or response to MG-132 | basal RGS2 protein expression versus RGS2^WT (Fig. S4) (HEK-293T cells [1]; no MG-132, Fig. S4, five or six independent experiments): trend toward lower basal expression

B5: RGS2^C13S: full-length RGS2 with C13S mutation (protein)
chain: B2 chain with C13S
modifications: left off: HA, end not stated, kept
notes: full-length RGS2 with C13S mutation
change of RGS2 protein levels with MG-132 (HEK-293T cells [1]; [5]): not significantly changed; also recorded: does not significantly change | basal RGS2 protein level versus RGS2^WT (HEK-293T cells [1]; no MG-132, Fig. 7, B and C, three independent experiments): increased protein levels at baseline; however, this increase was not statistically significant; also recorded: upward trend in basal expression | extension of RGS2 protein half-life versus RGS2^WT (HEK-293T cells [2]; CHX chase, RGS2^C13S versus RGS2^WT): almost twofold; also recorded: almost double that of RGS2^WT | RGS2 protein stability versus RGS2^WT (in words) (HEK-293T cells [2]; CHX chase, transfected HEK-293T): significantly stabilized | RGS2 protein half-life (t1/2) (HEK-293T cells [2]; transfected HEK-293T): 33.5 min | RGS2 protein levels upon FBXO44 knockdown (FBXO44 [3]): significantly increases RGS2^WT but not RGS2^C13S protein levels; also recorded: significant increase in RGS2^WT but not RGS2^C13S protein levels | RGS2^C13S expression level versus RGS2^WT in siRNA experiments (FBXO44 [3]; Fig. 7F): significantly higher levels than RGS2^WT

B6: RGS4: closely related RGS4, subject to proteasomal degradation by a different pathway (protein, UniProt P49798 1-205, looked up)
Regulator of G-protein …: MCKGLAGLPASCLRSAKDMKHRLGFLLQKSDSCEHNSSHNKKDKVVICQRVSQEEVKKWAESLENLISHECGLAAFKAFLKSEYSEENIDFWISCEEYKKIKSPSKLSPKAKKIYNEFISVQATKEVNLDSCTREETSRNMLEPTITCFDEAQKKIFNLMEKDSYRRFLKSRFYLDLVNPSSCGAEKQKGAKSSADCASLVPQCA
co-IP with FBXO44 (FBXO44 [4]): does not coimmunoprecipitate with FBXO44
